# Laboratory results from patent publication US10064928B2, “Peptides and combination of peptides for use in immunotherapy against CLL and other cancers” (IMMATICS BIOTECHNOLOGIES GMBH, priority 2015, dated 2018).
# Target: HLA-A*02:01 (Homo sapiens, UniProt P04439, D140Y/D185E/D98H/E176V/E277Q/G131W/G231S/I119V/I121R/I166T/I218V/L300P/L318F/N151K/N90K/P208A/P217A/Q86G/Q94H/R138H/R169H/T345S)
# Experiment: MHC binding assay (UV-ligand exchange, beta2m ELISA)
# Conditions: binding of HLA-class I restricted peptides to HLA-A*02:01, β2m ELISA
# Excerpt: Candidate peptides for T cell based therapies according to the present invention were further tested for their MHC binding capacity (affinity). The individual peptide-MHC complexes were produced by UV-ligand exchange, where a UV-sensitive peptide is cleaved upon UV-irradiation, and exchanged with the peptide of interest as analyzed. Only peptide candidates that can effectively bind and stabilize the peptide-receptive MHC molecules prevent dissociation of the MHC complexes. To determine the yield of the exchange reaction, an ELISA was performed based on the detection of the light chain (β2m) of stabilized MHC complexes. The assay was performed as generally described in Rodenko et al. (Rodenko et al., 2006).
# 96 well MAXISorp plates (NUNC) were coated over night with 2 ug/ml streptavidin in PBS at room temperature, washed 4× and blocked for 1 h at 37° C. in 2% BSA containing blocking buffer. Refolded HLA-A*02:01/MLA-001 monomers served as standards, covering the range of 15-500 ng/ml. Peptide-MHC monomers of the UV-exchange reaction were diluted 100 fold in blocking buffer. Samples were incubated for 1 h at 37° C., washed four times, incubated with 2 ug/ml HRP conjugated anti-β2m for 1 h at 37° C., washed again and detected with TMB solution that is stopped with […]. Absorption was measured at 450 nm. Candidate peptides that show a high exchange yield (preferably higher than 50%, most preferred higher than 75%) are generally preferred for a generation and production of antibodies or fragments thereof, and/or T cell receptors or fragments thereof, as they show sufficient avidity to the MHC molecules and prevent dissociation of the MHC complexes.
row,Substance,"Peptide Exchange (MHC class I binding score, peptide exchange yield)"
1,311 (LLVDVEPKV; listed as Homo sapiens) [compound 311],“+++” (≥50 = +++)
2,303 (ILSQPTPSL; listed as Homo sapiens) [compound 303],“+++” (≥50 = +++)
3,296 (FIAPTGHSL; listed as Homo sapiens) [compound 296],“++” (≥20% = ++)
4,349 (ALATHILSL; listed as Homo sapiens) [compound 349],“+++” (≥50 = +++)
5,265 (TLLADDLEIKL; listed as Homo sapiens) [compound 265],“+++” (≥50 = +++)
6,28 (AVLHLLLSV; listed as Homo sapiens) [compound 28],“++” (≥20% = ++)
7,351 (ALSEKLARL; listed as Homo sapiens) [compound 351],“+++” (≥50 = +++)
8,18 (LLGEFSIKM; listed as Homo sapiens) [compound 18],“+++” (≥50 = +++)
9,350 (ALEDRVWEL; listed as Homo sapiens) [compound 350],“+++” (≥50 = +++)
10,40 (FLDEDDMSL; listed as Homo sapiens) [compound 40],“++” (≥20% = ++)
11,80 (VLIEDELEEL; listed as Homo sapiens) [compound 80],“++” (≥20% = ++)
12,341 (LLAELPASVHA; listed as Homo sapiens) [compound 341],“+++” (≥50 = +++)
13,179 (VLLGLEMTL; listed as Homo sapiens) [compound 179],“+++” (≥50 = +++)
14,6 (ALDTLEDDMTI; listed as Homo sapiens) [compound 6],“+++” (≥50 = +++)
15,42 (FLEEGGVVTV; listed as Homo sapiens) [compound 42],“+++” (≥50 = +++)
16,195 (YLGGFALSV; listed as Homo sapiens) [compound 195],“++++” (≥75% = ++++)
17,83 (GQGEVLVYV; listed as Homo sapiens) [compound 83],“+++” (≥50 = +++)
18,369 (RLLDLENSLLGL; listed as Homo sapiens) [compound 369],“+++” (≥50 = +++)
19,31 (ELMHGVAGV; listed as Homo sapiens) [compound 31],“+++” (≥50 = +++)
20,73 (GLLEVISALQL; listed as Homo sapiens) [compound 73],“+++” (≥50 = +++)
21,226 (AMNISVPQV; listed as Homo sapiens) [compound 226],“+++” (≥50 = +++)

row,Substance,"Peptide Exchange (MHC class I binding score, peptide exchange yield)"
1,167 (TLDTSKLYV; listed as Homo sapiens) [compound 167],“+++” (≥50 = +++)
2,301 (AASPIITLV; listed as Homo sapiens) [compound 301],“+++” (≥50 = +++)
3,75 (GLSIFAQDLRL; listed as Homo sapiens) [compound 75],“++” (≥20% = ++)
4,121 (RLYEITIEV; listed as Homo sapiens) [compound 121],“++++” (≥75% = ++++)
5,312 (LLYNSTDPTL; listed as Homo sapiens) [compound 312],“+++” (≥50 = +++)
6,273 (VLGEYSYLL; listed as Homo sapiens) [compound 273],“+++” (≥50 = +++)
7,327 (VLIKWFPEV; listed as Homo sapiens) [compound 327],“++++” (≥75% = ++++)
8,171 (TLVPPAALISI; listed as Homo sapiens) [compound 171],“+++” (≥50 = +++)
9,271 (VIRNIVEAA; listed as Homo sapiens) [compound 271],“++” (≥20% = ++)
10,206 (HMQDVRVLL; listed as Homo sapiens) [compound 206],“+++” (≥50 = +++)
11,55 (FMEPTLLML; listed as Homo sapiens) [compound 55],“+++” (≥50 = +++)
12,165 (TLDDDLDTV; listed as Homo sapiens) [compound 165],“++” (≥20% = ++)
13,275 (VLLFIEHSV; listed as Homo sapiens) [compound 275],“+++” (≥50 = +++)
14,127 (LLPTAPTTV; listed as Homo sapiens) [compound 127],“+++” (≥50 = +++)
15,298 (IILPVEVEV; listed as Homo sapiens) [compound 298],“+++” (≥50 = +++)
16,381 (YLLEENKIKL; listed as Homo sapiens) [compound 381],“+++” (≥50 = +++)
17,94 (ILFPLRFTL; listed as Homo sapiens) [compound 94],“+++” (≥50 = +++)
18,234 (GLDDAEYAL; listed as Homo sapiens) [compound 234],“++” (≥20% = ++)
19,9 (ALCDTLITV; listed as Homo sapiens) [compound 9],“+++” (≥50 = +++)
20,37 (FIMEGGAMVL; listed as Homo sapiens) [compound 37],“++++” (≥75% = ++++)
21,153 (SLLAELHVL; listed as Homo sapiens) [compound 153],“+++” (≥50 = +++)

row,Substance,"Peptide Exchange (MHC class I binding score, peptide exchange yield)"
1,353 (ATPMPTPSV; listed as Homo sapiens) [compound 353],“++” (≥20% = ++)
2,97 (LLFATQITL; listed as Homo sapiens) [compound 97],“++” (≥20% = ++)
3,342 (SLITPLQAV; listed as Homo sapiens) [compound 342],“+++” (≥50 = +++)
4,221 (ALVSTIIMV; listed as Homo sapiens) [compound 221],“+” (≥10% = +)
5,148 (SIVASLITV; listed as Homo sapiens) [compound 148],“+++” (≥50 = +++)
6,132 (LVYEAIIMV; listed as Homo sapiens) [compound 132],“+++” (≥50 = +++)
7,72 (GLLDAGKMYV; listed as Homo sapiens) [compound 72],“+++” (≥50 = +++)
8,142 (QLDEPAPQV; listed as Homo sapiens) [compound 142],“++” (≥20% = ++)
9,170 (TLTFRVETV; listed as Homo sapiens) [compound 170],“+++” (≥50 = +++)
10,293 (ALDIMIPMV; listed as Homo sapiens) [compound 293],“+++” (≥50 = +++)
11,78 (GLPSFLTEV; listed as Homo sapiens) [compound 78],“+++” (≥50 = +++)
12,233 (GIIDINVRL; listed as Homo sapiens) [compound 233],“++” (≥20% = ++)
13,172 (TLYDMLASI; listed as Homo sapiens) [compound 172],“+++” (≥50 = +++)
14,116 (LLIGATMQV; listed as Homo sapiens) [compound 116],“+++” (≥50 = +++)
15,374 (VLSVITEEL; listed as Homo sapiens) [compound 374],“+++” (≥50 = +++)
16,199 (YLVELSSLL; listed as Homo sapiens) [compound 199],“++++” (≥75% = ++++)
17,122 (LLIPVVPGV; listed as Homo sapiens) [compound 122],“+++” (≥50 = +++)
18,47 (FLSDQPEPYL; listed as Homo sapiens) [compound 47],“++” (≥20% = ++)
19,106 (FMASHLDYL; listed as Homo sapiens) [compound 106],“+++” (≥50 = +++)
